Source: PMC4534855 (2015)

B1: Flag-eIF2β, wild type [S. cerevisiae] / eIF2α in yeast whole-cell extracts [yeast (endogenous in yeast whole-cell extracts)] (parent)
chain 1: MSSDLAAELGFDPALKKKKKTKKVIPDDFDAAVNGKENGSGDDLFAGLKKKKKKSKSVSADAEAEKEPTDDIAEALGELSLKKKKKKTKDSSVDAFEKELAKAGLDNVDAESKEGTPSANSSIQQEVGLPYSELLSRFFNILRTNNPELAGDRSGPKFRIPPPVCLRDGKKTIFSNIQDIAEKLHRSPEHLIQYLFAELGTSGSVDGQKRLVIKGKFQSKQMENVLRRYILEYVTCKTCKSINTELKREQSNRLFFMVCKSCGSTRSVSSIKTGFQATVGKRRRM
chain 2: MSTSHCRFYENKYPEIDDIVMVNVQQIAEMGAYVKLLEYDNIEGMILLSELSRRRIRSIQKLIRVGKNDVAVVLRVDKEKGYIDLSKRRVSSEDIIKCEEKYQKSKTVHSILRYCAEKFQIPLEELYKTIAWPLSRKFGHAYEAFKLSIIDETVWEGIEPPSKDVLDELKNYISKRLTPQAVKIRADVEVSCFSYEGIDAIKDALKSAEDMSTEQMQVKVKLVAAPLYVLTTQALDKQKGIEQLESAIEKITEVITKYGGVCNITMPPKAVTATEDAELQALLESKELDNRSDSEDDEDESDDE
B2: Flag-eIF2β, wild type [S. cerevisiae] / eIF2Bε in yeast whole-cell extracts [yeast (endogenous in yeast whole-cell extracts)] (parent)
chain 1: B1 chain 1
chain 2: MAGKKGQKKSGLGNHGKNSDMDVEDRLQAVVLTDSYETRFMPLTAVKPRCLLPLANVPLIEYTLEFLAKAGVHEVFLICSSHANQINDYIENSKWNLPWSPFKITTIMSPEARCTGDVMRDLDNRGIITGDFILVSGDVLTNIDFSKMLEFHKKMHLQDKDHISTMCLSKASTYPKTRTIEPAAFVLDKSTSRCIYYQDLPLPSSREKTSIQIDPELLDNVDEFVIRNDLIDCRIDICTSHVPLIFQENFDYQSLRTDFVKGVISSDILGKHIYAYLTDEYAVRVESWQTYDTISQDFLGRWCYPLVLDSNIQDDQTYSYESRHIYKEKDVVLAQSCKIGKCTAIGSGTKIGEGTKIENSVIGRNCQIGENIRIKNSFIWDDCIIGNNSIIDHSLIASNATLGSNVRLNDGCIIGFNVKIDDNMDLDRNTKISASPLKNAGSRMYDNESNEQFDQDLDDQTLAVSIVGDKGVGYIYESEVSDDEDSSTEACKEINTLSNQLDELYLSDDSISSATKKTKKRRTMSVNSIYTDREEIDSEFEDEDFEKEGIATVERAMENNHDLDTALLELNTLRMSMNVTYHEVRIATITALLRRVYHFIATQTLGPKDAVVKVFNQWGLLFKRQAFDEEEYIDLMNIIMEKIVEQSFDKPDLILFSALVSLYDNDIIEEDVIYKWWDNVSTDPRYDEVKKLTVKWVEWLQNADEESSSEEE

Variants of: B1
Test: co-immunoprecipitation with FLAG affinity resin, quantified western
Details: three biological replicates, read off a plot

response | Variant
0.94 eIF2α:eIF2β | chain 1 MSSDLAAELGFDPALKKKKKTKKVIPDDFDAAVNGKENGSGDDLFAGLKKKKKKSKSVSADAEAEKEPTDDIAEALGELSLKKKKKKTKDSSVDAFEKELAKAGLDNVDAESKEGTPSANSSIQQEVGLPYSELLSRFFNILRTNNPELAGDRSGPKFRIPPPVCLRDGKKTIFSNIQDIAEKLHRSPEHLIQYLFAELGTSGSVDGQKRLVIKGKAQSKAMENVLRRYILEYVTCKTCKSINTELKREQSNRLFFMVCKSCGSTRSVSSIKTGFQATVGKRRRM [chain 1 F217A Q221A]
0.96 eIF2α:eIF2β | chain 1 MSSDLAAELGFDPALKKKKKTKKVIPDDFDAAVNGKENGSGDDLFAGLKKKKKKSKSVSADAEAEKEPTDDIAEALGELSLKKKKKKTKDSSVDAFEKELAKAGLDNVDAESKEGTPSANSSIQQEVGLPYSELLSRFFNILRTNNPELAGDRSGPKFRIPPPVCLRDGKKTIFSNIQDIAEKLHRSPEHLIQYLFAELGTAGSVDGQKRLVIAGKFQSKQMENVLRRYILEYVTCKTCKSINTELKREQSNRLFFMVCKSCGSTRSVSSIKTGFQATVGKRRRM [chain 1 S202A K214A]

Variants of: B2
Test: as above
Details: three biological replicates, read off a plot

response | Variant
0.84 eIF2Bε:eIF2β | chain 1 MSSDLAAELGFDPALKKKKKTKKVIPDDFDAAVNGKENGSGDDLFAGLKKKKKKSKSVSADAEAEKEPTDDIAEALGELSLKKKKKKTKDSSVDAFEKELAKAGLDNVDAESKEGTPSANSSIQQEVGLPYSELLSRFFNILRTNNPELAGDRSGPKFRIPPPVCLRDGKKTIFSNIQDIAEKLHRSPEHLIQYLFAELGTAGSVDGQKRLVIAGKFQSKQMENVLRRYILEYVTCKTCKSINTELKREQSNRLFFMVCKSCGSTRSVSSIKTGFQATVGKRRRM [chain 1 S202A K214A]
0.63 eIF2Bε:eIF2β | chain 1 MSSDLAAELGFDPALKKKKKTKKVIPDDFDAAVNGKENGSGDDLFAGLKKKKKKSKSVSADAEAEKEPTDDIAEALGELSLKKKKKKTKDSSVDAFEKELAKAGLDNVDAESKEGTPSANSSIQQEVGLPYSELLSRFFNILRTNNPELAGDRSGPKFRIPPPVCLRDGKKTIFSNIQDIAEKLHRSPEHLIQYLFAELGTSGSVDGQKRLVIKGKAQSKAMENVLRRYILEYVTCKTCKSINTELKREQSNRLFFMVCKSCGSTRSVSSIKTGFQATVGKRRRM [chain 1 F217A Q221A]
